Source: publication PMC10202398, “Nitrite reductase activity in F420-dependent sulphite reductase (Fsr) from Methanocaldococcus jannaschii” (Access Microbiology, 2023)

T1: MjFsrI (F420-dependent sulphite reductase, Fsr) (Methanocaldococcus jannaschii, UniProt Q58280)
T1 construct: native, purified from sulphite-grown Mj cells; untagged
T1 sequence (Q58280 1-620): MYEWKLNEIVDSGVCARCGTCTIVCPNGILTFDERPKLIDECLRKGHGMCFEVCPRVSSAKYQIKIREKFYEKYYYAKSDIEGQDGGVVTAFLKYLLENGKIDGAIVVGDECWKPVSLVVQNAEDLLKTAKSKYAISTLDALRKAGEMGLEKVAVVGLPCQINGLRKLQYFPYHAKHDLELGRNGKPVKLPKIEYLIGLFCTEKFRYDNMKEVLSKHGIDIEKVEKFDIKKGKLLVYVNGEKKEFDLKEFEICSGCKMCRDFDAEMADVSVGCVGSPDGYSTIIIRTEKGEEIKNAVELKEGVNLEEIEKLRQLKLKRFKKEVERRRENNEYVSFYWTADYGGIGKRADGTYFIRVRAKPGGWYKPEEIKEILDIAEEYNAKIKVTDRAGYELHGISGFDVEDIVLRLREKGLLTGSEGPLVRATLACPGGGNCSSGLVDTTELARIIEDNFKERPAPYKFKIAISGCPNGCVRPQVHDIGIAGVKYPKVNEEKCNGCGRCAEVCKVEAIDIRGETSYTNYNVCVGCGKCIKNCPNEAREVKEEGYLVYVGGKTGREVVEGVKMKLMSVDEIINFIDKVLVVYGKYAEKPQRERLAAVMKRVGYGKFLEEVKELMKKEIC


How the values were obtained:
[1] = molecular target: T1, MjFsrI (F420-dependent sulphite reductase, Fsr); assay: non-degradative extraction from purified protein, reversed-phase HPLC; format: binding; conditions: native co-purified flavin, 25 mM potassium phosphate pH 7
[2] = substrate: NO; assay: purified protein; format: biochemical, Methanocaldococcus jannaschii; conditions: 40 µM F420H2, 25-600 µM hydroxylamine, 100 mM potassium phosphate pH 7
[3] = substrate: O=NO; assay: purified protein; format: biochemical, Methanocaldococcus jannaschii; conditions: 40 µM F420H2, 5-150 µM nitrite, 100 mM potassium phosphate pH 7

| Molecule | non-degradative extraction from purified protein, reversed-phase HPLC [1] | Km [2] [µM] | Km [3] [µM] |
| --- | --- | --- | --- |
| Cc1cc2nc3c(=O)[nH]c(=O)nc-3n(C[C@H](O)[C@H](O)[C@H](O)COP(=O)(O)OP(=O)(O)OC[C@H]3O[C@@H](n4cnc5c(N)ncnc54)[C@H](O)[C@@H]3O)c2cc1C [FAD] | Reversed-phase HPLC identified the flavin extracted from MjFsrI as FAD |  |  |
| MjFsrI (F420-dependent sulphite reductase, Fsr) (Methanocaldococcus jannaschii DSM 2661) (protein, native, purified from sulphite-grown Mj cells; untagged) MYEWKLNEIVDSGVCARCGTCTIVCPNGILTFDERPKLIDECLRKGHGMCFEVCPRVSSAKYQIKIREKFYEKYYYAKSDIEGQDGGVVTAFLKYLLENGKIDGAIVVGDECWKPVSLVVQNAEDLLKTAKSKYAISTLDALRKAGEMGLEKVAVVGLPCQINGLRKLQYFPYHAKHDLELGRNGKPVKLPKIEYLIGLFCTEKFRYDNMKEVLSKHGIDIEKVEKFDIKKGKLLVYVNGEKKEFDLKEFEICSGCKMCRDFDAEMADVSVGCVGSPDGYSTIIIRTEKGEEIKNAVELKEGVNLEEIEKLRQLKLKRFKKEVERRRENNEYVSFYWTADYGGIGKRADGTYFIRVRAKPGGWYKPEEIKEILDIAEEYNAKIKVTDRAGYELHGISGFDVEDIVLRLREKGLLTGSEGPLVRATLACPGGGNCSSGLVDTTELARIIEDNFKERPAPYKFKIAISGCPNGCVRPQVHDIGIAGVKYPKVNEEKCNGCGRCAEVCKVEAIDIRGETSYTNYNVCVGCGKCIKNCPNEAREVKEEGYLVYVGGKTGREVVEGVKMKLMSVDEIINFIDKVLVVYGKYAEKPQRERLAAVMKRVGYGKFLEEVKELMKKEIC |  | 112.4 ± 14.4 | 8.9 ± 0.9 |
